The source of these data is paper PMC12772503.

B1: myc-Syd-N2 (Syd^1-529) R492 [Drosophila] / HA-Rab2^Q65L [Drosophila] (parent)
chain 1: MMDNDDALLNNGGPQSGAETVYGTEDNNMVMSEKNEQVVSIVQQLAGSIYQEFERMINRYDEDVVKNLMPLLVNVLECLDASYRINQEQDVEVELLREDNEQLVTQYEREKSARKQSEQKLLEAEDLAEQENKELATRLESVESIVRMLELKHKNSLEHASRLEEREADLKKEYNKLHERYTELFKNHVDYMERTKMLMGSTHSQMSTASERMDVSRARLNPVARSSGPVSYGFASLENSVMLDTETICSVGSQSDDSGPPSLQNELDNLSGTLERGAATDALQQQHHATSPQSPDSSPVVPNVPTNVGRSTTKKEQRSDNNLYQELSFQDNEESEENEIVTGSWVHPGEYASSANDNYFGMGKEVENLIMENNELLATKNALNIVKDDLIVKVDELTGEVEIVREELNAMQQSRTKLRQRISELEDELKKAKEQVKQQNTEQEENDVPLAQRKRFTRVEMAMVLMERNQYKERLMELQEAVRLTEILRASRTVDNLDRKSKQSIWKYFSNLFTPSNRPTERVADGLGG
chain 2: MSYAYLFKYIIIGDTGVGKSCLLLQFTDKRFQPVHDLTIGVEFGARMITIDGKQIKLQIWDTAGLEAFRSITRSYYRGAAGALLVYDITRRETFNHLTTWLEDARQHSNSNMVIMLIGNKSDLDSRREVKKEEGEAFAREHGLVFMETSARTAANVEEAFINTAKEIYEKIQEGVFDINNEANGIKIGQQHSPTNPSLPGAGGAAGAANSGCC

Variants of B1 are the subject of the first assay. Nature of the assay: Co-IP (anti-HA IP, anti-myc immunoblot quantification). The note with it: with HA-Rab2^Q65L [Drosophila]; HEK cell lysates; single experiment 1 of 3 (solid line); P < 0.005 vs WT printed; parent: 17; read off a plot. On the technique in general: Immunoblotting shows a protein as a band on a membrane.
Consider chain 1 V482A R483A L484A T485A E486A I487A R489A S491A R492A, for which the response turned out to be 11 a.u.

The same assay, now with this note: with HA-Rab2^Q65L [Drosophila]; HEK cell lysates; single experiment 2 of 3 (upper dashed line); P < 0.005 vs WT printed; parent: 17; read off a plot.
Consider chain 1 V482A R483A L484A T485A E486A I487A R489A S491A R492A, for which the response was 6.8 a.u.

Still in this assay, the particulars now being: with HA-Rab2^Q65L [Drosophila]; HEK cell lysates; single experiment 3 of 3 (lower dashed line); P < 0.005 vs WT printed; parent: 17; read off a plot.
For the variant chain 1 V482A R483A L484A T485A E486A I487A R489A S491A R492A, the response came out at 4.7 a.u.
